Results taken from publication PMC11268888, “Glycan-shielded homodimer structure and dynamical features of the canine distemper virus hemagglutinin relevant for viral entry and efficient vaccination” (eLife, 2024).

Tests used:
[1] = biological target: T1, ectodomain of dog Nectin-4 (residues 1-332) (dog); assay: SPR; […]; HBS-EP (10 mM HEPES pH 7.4, 150 mM NaCl, 3 mM EDTA, 0.005% Surfactant P20); […]; settings: both partners purified
T1 construct: also called dNectin-4; PVRL4

[2] = biological target: T2, ectodomain of human Nectin-4 (residues 1-333) (human, UniProt Q96NY8 32-333); assay: as above; settings: both partners purified
T2 construct: also called hNectin-4; PVRL4
T2 sequence (looked up): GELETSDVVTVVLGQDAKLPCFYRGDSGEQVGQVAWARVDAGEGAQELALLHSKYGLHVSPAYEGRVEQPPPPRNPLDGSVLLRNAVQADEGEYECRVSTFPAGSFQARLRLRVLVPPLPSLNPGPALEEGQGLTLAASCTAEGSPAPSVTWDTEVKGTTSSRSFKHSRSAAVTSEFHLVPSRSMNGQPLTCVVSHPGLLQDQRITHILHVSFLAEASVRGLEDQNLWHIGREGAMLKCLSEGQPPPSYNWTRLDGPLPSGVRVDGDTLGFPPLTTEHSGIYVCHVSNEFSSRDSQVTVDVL

B1: MeV-H (measles virus hemagglutinin), wild-type strain (domain or fragment)
chain: DYDQYCADVAAEELMNALVNSTLLEARATNQFLAVSKGNCSGPTTIRGQFSNMSLSLLDLYLSRGYNVSSIVTMTSQGMYGGTYLVGKPNLSSKGSELSQLSMHRVFEVGVIRNPGLGAPVFHMTNYFEQPVSNDFSNCMVALGELKFAALCHREDSITIPYQGSGKGVSFQLVKLGVWKSPTDMRSWVPLSTDDPVIDRLYLSSHRGVIADNQAKWAVPTTRTDDKLRMETCFQQACKGKNQALCENPEWAPLKDNRIPSYGVLSVNLSLTVELKIKIASGFGPLITHGSGMDLYKTNHNNVYWLTIPPMKNLALGVINTLEWIPRFKVSPNLFTVPIKEAGEDCHAPTYLPAEVDGDVKLSSNLVILPGQDLQYVLATYDTSRVEHAVVYYVYSPSRSFSYFYPFRLPIKGVPIELQVECFTWDKKLWCRHFCVLADSESGGHITHSGMVGMGVSCTVTREDGTNRR
[1]
  Ka: 739000 M⁻¹
  Kd: 1350 nM
[2]
  Ka: 1.48e+06 M⁻¹
  Kd: 674 nM
